# Results from US20150284743A1, “METHODS FOR THE ENZYMATIC PRODUCTION OF ISOPRENE FROM ISOPRENOL” (GLOBAL BIOENERGIES, priority 2012, published 2015).
# B1: monoterpene synthase from E. globulus: purified monoterpene synthase of Eucalyptus globulus (UniProt Q0PCI4, SEQ ID NO: 6) (protein, listed as Eucalyptus globulus)
# chain: MALRLLFTPHLPVLSSRRANGRVRCSASTQISDPQEGRRSANYQPSVWTYNYLQSIVAGEGRQSRREVEQQKEKVQILEEEVRGALNDEKAETFTIFATVDDIQRLGLGDHFEEDISNALRRCVSKGAVFMSLQKSLHGTALGFRLLRQHGYEVSQDVFKIFLDESGSFVKTLGGDVQGVLSLYEASHLAFEEEDILHKARSFAIKHLENLNSDVDKDLQDQVKHELELPLHRRMPLLEARRSIEAYSRREYTNPQILELALTDFNVSQSTLQRDLQEMLGWWNNTGLAKRLSFARDRLIECFFWAVGIAHEPSLSICRKAVTKAFALILVLDDVYDVFGTLEELELFTEAVRRWDLNAVEDLPVYMKLCYLALYNSVNEMAYETLKEKGENVIPYLAKAWYDLCKAFLQEAKWSNSRIIPGVEEYLNNGWVSSSGSVMLIHAYFLASPSIRKEELESLEHYHDLLRLPSLIFRLTNDIASSSAELERGETTNSIRCFMQEKGISELEARECVKEEIDTAWKKMNKYMVDRSTFNQSFVRMTYNLARMAHCVYQDGDAIGSPDDLSWNRVHSLIIKPISPAA
# B2: Eucalyptus globulus monoterpene synthase (UniProt Q0PCI4), SEQ ID NO: 6 (Eucalyptus globulus) (protein)
# chain: ASTQISDPQEGRRSANYQPSVWTYNYLQSIVAGEGRQSRREVEQQKEKVQILEEEVRGALNDEKAETFTIFATVDDIQRLGLGDHFEEDISNALRRCVSKGAVFMSLQKSLHGTALGFRLLRQHGYEVSQDVFKIFLDESGSFVKTLGGDVQGVLSLYEASHLAFEEEDILHKARSFAIKHLENLNSDVDKDLQDQVKHELELPLHRRMPLLEARRSIEAYSRREYTNPQILELALTDFNVSQSTLQRDLQEMLGWWNNTGLAKRLSFARDRLIECFFWAVGIAHEPSLSICRKAVTKAFALILVLDDVYDVFGTLEELELFTEAVRRWDLNAVEDLPVYMKLCYLALYNSVNEMAYETLKEKGENVIPYLAKAWYDLCKAFLQEAKWSNSRIIPGVEEYLNNGWVSSSGSVMLIHAYFLASPSIRKEELESLEHYHDLLRLPSLIFRLTNDIASSSAELERGETTNSIRCFMQEKGISELEARECVKEEIDTAWKKMNKYMVDRSTFNQSFVRMTYNLARMAHCVYQDGDAIGSPDDLSWNRVHSLIIKPISPAA
# B3: Rhizobium leguminosarum 4-methyl-5-(2-hydroxyethyl)thiazole kinase (hydroxyethylthiazole kinase, EC 2.7.1.50) (Rhizobium johnstonii 3841) (protein)
# chain: MQTRTTPGAMLKAMREKPPLVQCITNYVAMNIAANVLLAAGASPAMVHAAEEAGEFAAIASALTINIGTLSTQWIDGMQAAAKAATSAGKPWVLDPVAHYATAFRRNAVAELLALKPTIIRGNASEIIALAGGESRGQGVDSRDPVEQAEGSARWLAERQRAVVAVTGAVDFVTDGERAVRIEGGSALMPQVTALGCSLTCLVGAFAATAPEDIFGATVAALSTFAIAGEEAALGAAGPGSFSWRFLDALAALDAETLDARARISAA
# B4: Bacillus subtilis 4-methyl-5-(2-hydroxyethyl)thiazole kinase (hydroxyethylthiazole kinase, EC 2.7.1.50) (Bacillus subtilis subsp. subtilis str. 168) (protein)
# chain: MDAQSAAKCLTAVRRHSPLVHSITNNVVTNFTANGLLALGASPVMAYAKEEVADMAKIAGALVLNIGTLSKESVEAMIIAGKSANEHGVPVILDPVGAGATPFRTESARDIIREVRLAAIRGNAAEIAHTVGVTDWLIKGVDAGEGGGDIIRLAQQAAQKLNTVIAITGEVDVIADTSHVYTLHNGHKLLTKVTGAGCLLTSVVGAFCAVEENPLFAAIAAISSYGVAAQLAAQQTADKGPGSFQIELLNKLSTVTEQDVQEWATIERVTVS
# notes: homotrimer
# B5: Escherichia coli 4-methyl-5-(2-hydroxyethyl)thiazole kinase (hydroxyethylthiazole kinase, EC 2.7.1.50) (Escherichia coli K-12) (protein)
# chain: MQVDLLGSAQSAHALHLFHQHSPLVHCMTNDVVQTFTANTLLALGASPAMVIETEEASQFAAIASALLINVGTLTQPRAQAMRAAVEQAKSSQTPWTLDPVAVGALDYRRHFCHELLSFKPAAIRGNASEIMALAGIANGGRGVDTTDAAANAIPAAQTLARETGAIVVVTGEMDYVTDGHRIIGIHGGDPLMTKVVGTGCALSAVVAACCALPGDTLENVASACHWMKQAGERAVARSEGPGSFVPHFLDALWQLTQEVQA
# Columns and labels:
# [1] = Screening for isoprene production from isoprenyl monophosphate with purified terpene synthases; assay type: biochemical; conditions: 10 mM isoprenyl monophosphate, 37° C., 17 h, GC-FID / GC-MS of headspace
# Experimental: The enzymatic assays were carried out under the following conditions at 37° C.:
# 10 mM isoprenyl monophosphate (Sigma)
# 2.5 mg of the terpene synthase was added to 0.5 ml of reaction mixture. An enzyme-free control reaction was carried out in parallel. Assays were incubated at 37° C. for 17 h in a 1.5 ml sealed glass vial (Interchim) with shaking. One ml of the headspace phase was then collected and injected into a gas chromatograph Varian 430-GC chromatograph equipped with a flame ionization detector (FID). Nitrogen was used as carrier gas with a flow rate of 30 mL/min. Volatile compounds were chromatographically separated on Rtx-1 column (Restek) using an isothermal mode at 100° C. The enzymatic reaction product was identified by direct comparison with isoprene standard (Sigma). Under these GC conditions, the retention time for isoprene was 3.47 min. […] Gas chromatography-mass spectrometry (GC-MS) was then used to confirm the identity of the product detected by gas chromatography with flame ionization. The samples were analyzed on a Varian 3400Cx gas chromatograph equipped with Varian Saturn 3 mass selective detector. A mass spectrum of isoprene obtained by enzymatic conversion of isoprenyl monophosphate was similar to the one of commercial isoprene (FIG. 8).
# [2] = substrate: C=C(C)CCOP(=O)(O)O; assay: Isoprene production from isoprenyl monophosphate, GC/FID; assay type: biochemical, Eucalyptus globulus; conditions: other: isoprenyl monophosphate 0-150 mM, pH 7.5, 20 mM MgCl2, 37° C., 18 h, enzyme 4 mg/ml
# Experimental: (§1) The genes encoding the enzymes of interest were cloned in the pET 25b(+) vector (Novagen). Nucleotide sequences encoding a chloroplast transit peptide in plant terpene synthases were removed, resulting in DNA sequences encoding the mature proteins only. […] Competent E. coli BL21(DE3) cells (Novagen) were transformed with this vector by heat shock. The transformed cells were grown with shaking (160 rpm) on ZYM-5052 auto-induction medium (Studier FW, Prot. Exp. Pur. 41, (2005), 207-234) for 6 h at 37° C. and protein expression was continued at 28° C. or 20° C. overnight (approximately 16 h). The cells were collected by centrifugation at 4° C., 10,000 rpm for 20 min and the pellets were frozen at −80° C.
# The pellets from 200 ml of culture cells were thawed on ice and resuspended in 5 ml of Na2HPO4 pH 8 containing 300 mM NaCl, 5 mM MgCl2 and 1 mM DTT. […] Protein concentrations were quantified according to the Bradford method. […]
# 2.5 mg of the terpene synthase was added to 0.5 ml of reaction mixture. […] Gas chromatography-mass spectrometry (GC-MS) was then used to confirm the identity of the product detected by gas chromatography with flame ionization. The samples were analyzed on a Varian 3400Cx gas chromatograph equipped with Varian Saturn 3 mass selective detector. […]
# Kinetic parameters of isoprene production were evaluated in the following conditions: […]
# [3] = substrate: CC(C)=CCOP(=O)(O)O; assay: purified protein, by the assay type; conditions: other: prenyl monophosphate 0-150 mM, pH 7.5, 20 mM MgCl2, 37° C., 18 h, enzyme 2 mg/ml
# [4] = substrate: C=C(C)CCO; assay: Isoprenol phosphorylation, pyruvate kinase/lactate dehydrogenase coupled assay (ADP release), R. leguminosarum kinase; assay type: biochemical, Rhizobium leguminosarum; conditions: other: isoprenol 0-40 mM, 5 mM ATP, pH 7.5, 37° C., enzyme 0.025 mg/ml
# Experimental: as §1
# (§2) The pellets from 200 ml of culture cells were thawed on ice and resuspended in 5 ml of Na2HPO4 pH 8 containing 300 mM NaCl, 5 mM MgCl2 and 1 mM DTT. Twenty microliters of lysonase (Novagen) were added. Cells were incubated 10 minutes at room temperature and then returned to ice for 20 minutes. Cell lysis was completed by sonication for 3×15 seconds. The bacterial extracts were then clarified by centrifugation at 4° C., 10,000 rpm for 20 min. The clarified bacterial lysates were loaded on PROTINO-1000 Ni-TED column (Macherey-Nagel) allowing adsorption of 6-His tagged proteins. Columns were washed and the enzymes of interest were eluted with 4 ml of 50 mM Na2HPO4 pH 8 containing 300 mM NaCl, 5 mM MgCl2, 1 mM DTT, 250 mM imidazole. […] Protein concentrations were quantified according to the Bradford method. […]
# (§3) The release of ADP that is associated with isoprenol phosphorylation was quantified using the pyruvate kinase/lactate dehydrogenase coupled assay (FIG. 4). The purified 4-methyl-5-(2-hydroxyethyl)thiazole kinases from Escherichia coli, Bacillus subtilis, Rhizobium leguminosarum were thus evaluated for their ability to phosphorylate isoprenol. […]
# (§4) Each assay was started by the addition of the enzyme at a final concentration 0.025 mg/ml and the decrease of NADH was monitored by following its absorbance at 340 nm. […]
# [5] = substrate: CC(C)=CCO; assay: Prenol phosphorylation, pyruvate kinase/lactate dehydrogenase coupled assay (ADP release), R. leguminosarum kinase; assay type: biochemical, Rhizobium leguminosarum; conditions: other: prenol, 5 mM ATP, pH 7.5, 37° C., enzyme 0.5 mg/ml
# Experimental: as §1, §2
# (§5) The purified 4-methyl-5-(2-hydroxyethyl) thiazole kinases from Escherichia coli, Bacillus subtilis, Rhizobium leguminosarum were evaluated for their ability to phosphorylate prenol. The release of ADP associated to prenol phosphorylation was quantified using the pyruvate kinase/lactate dehydrogenase coupled assay (FIG. 4). […]
# (§6) Each assay was started by the addition of the enzyme at a final concentration 0.5 mg/ml and the decrease of NADH was monitored by following its absorbance at 340 nm. […]
# [6] = substrate: C=C(C)CCO; assay: Isoprenol phosphorylation, pyruvate kinase/lactate dehydrogenase coupled assay (ADP release), B. subtilis kinase; assay type: biochemical, Bacillus subtilis; conditions: other: isoprenol 0-40 mM, 5 mM ATP, pH 7.5, 37° C., enzyme 0.025 mg/ml
# Experimental: as §1, §2, §3, §4
# [7] = substrate: CC(C)=CCO; assay: Prenol phosphorylation, pyruvate kinase/lactate dehydrogenase coupled assay (ADP release), B. subtilis kinase; assay type: biochemical, Bacillus subtilis; conditions: other: prenol, 5 mM ATP, pH 7.5, 37° C., enzyme 0.5 mg/ml
# Experimental: as §1, §2, §5, §6
# [8] = substrate: CC(C)=CCO; assay: Prenol phosphorylation, pyruvate kinase/lactate dehydrogenase coupled assay (ADP release), E. coli kinase; assay type: biochemical, Escherichia coli; conditions: other: prenol, 5 mM ATP, pH 7.5, 37° C., enzyme 0.5 mg/ml
# Experimental: as §1, §2, §5, §6
# [9] = substrate: C=C(C)CCO; assay: Isoprenol phosphorylation, pyruvate kinase/lactate dehydrogenase coupled assay (ADP release), E. coli kinase; assay type: biochemical, Escherichia coli; conditions: other: isoprenol 0-40 mM, 5 mM ATP, pH 7.5, 37° C., enzyme 0.025 mg/ml
# Experimental: as §1, §2, §3, §4
molecule,measurement,setting,value
B1,Isoprene production from isoprenyl monophosphate,[1],isoprene produced
B2,Km,[2],40 mM
same,kcat,[2],1.6e-05 s⁻¹
same,Km,[3],60 mM
same,kcat,[3],0.00056 s⁻¹
B3,Km,[4],10 mM
same,kcat,[4],0.8 s⁻¹
same,kcat/Km,[4],80 M⁻¹ s⁻¹
same,Km,[5],10 mM
same,kcat,[5],0.01 s⁻¹
same,kcat/Km,[5],1 M⁻¹ s⁻¹
B4,Km,[6],3 mM
same,kcat,[6],0.03 s⁻¹
same,kcat/Km,[6],10 M⁻¹ s⁻¹
same,Km,[7],3 mM
same,kcat,[7],0.006 s⁻¹
same,kcat/Km,[7],2 M⁻¹ s⁻¹
B5,Km,[8],3 mM
same,kcat,[8],0.05 s⁻¹
same,kcat/Km,[8],16 M⁻¹ s⁻¹
same,Km,[9],7.5 mM
same,kcat,[9],1 s⁻¹
same,kcat/Km,[9],130 M⁻¹ s⁻¹
